In experiment [1] the target is T1, NC36b: peptide comprising residues 4-38 of the pre-S1 domain of HBV L protein with a biotin modification at … (Hepatitis B virus (genotype  …, C-terminal K-Biotin)).
T1 peptide: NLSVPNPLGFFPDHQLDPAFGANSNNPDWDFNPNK
Nature of the experiment: ELISA on peptide captured by streptavidin.

Experiment [2] deals with pre-S1 domain of the L envelope protein on HBV (genotype D) virus (Hepatitis B virus genotype D). As to the kind of experiment: cell-based or functional assay.
For experiment [3], the target named is pre-S1 domain of the L envelope protein on HBV (genotype B) virus (Hepatitis B virus genotype B). As to the kind of experiment: cell-based or functional assay.
In experiment [4] the target is pre-S1 domain of the L envelope protein on HBV (genotype C) virus (Hepatitis B virus genotype C). As to the kind of experiment: cell-based or functional assay.

Substitutions are numbered along the chain they refer to. Bounds are passed on as bounds.

B1: m36 (antibody, V domains shown)
VH: QMQLVQSGGGLVQPGRSLRLSCAASGFTFDDYAMHWVRQAPGKGLEWVSGISWNSGSIGYADSVKGRFTISRDNAKNSLYLQMNSLRAEDTALYYCAKTSYGGAFDIWGQGTMVTVSS
VL: QPVLTQSPSASGTPGQRVTISCSGNTSNIGSYYAYWYQQLPGTAPKLLIYDNNQRPSGIPARFSGSKSGTSASLAISGLQSEDEADYYCATWDDSLNGPVFGGGTKVTVL
On to B1, for which, in experiment [1], the binding result is listed as “binds”.

B2: m1Q (antibody, V domains shown)
VH: QVQLVESGGGVVQPGRSLRLSCAASGFTFSSYAMHWVRQAPGKGLEQVAVISYDGSNKYYVDSVKGRFTISRDNSKNTLYLQMNSLRAEDTAVYYCARSTYGMDVWGQGTTVTVSS
VL: DVVMTQSPLSLPVTLGQSASISCRSSQSLVHSDGNTYLNWFQQRPGQSPRRLIYKVSNRDSGVPDRFSGSGSDTDFTLEISRVEAEDVGIYYCMQGTHWWTFGQGTKLDIK
notes: also called m10Q (label of the VL entry)
In the case of B2, the binding result in experiment [1] is listed as “binds”.

B3: A14 (antibody, V domains shown)
VH: QVQLQQSGPGLVKPSQTLSLTCAISGDSVSSNSAAWNWIRQSPSRGLEWLGRTYYRSKWYNDYAVSVKSRITINPDTSKNQFSLQLNSVTPEDTAVYYCARGTRWGMDVWGQGTLVTVSS
VL: QSVLTQPPSASGTPGQRVTISCSGSSSNIGSYYVYWYQQFPGTAPKLLIYGNNQRPSGVPDRFSGSKSGTSASLAITGLQAEDEADYYCQSYDSSLSGVIFGGGTKLTVL
Turning to B3, in experiment [2], the “HBV (genotype D) neutralization activity, against HBIG” value was more than 1000 fold and the “IC50 of HBV neutralization, genotype D” value turned out to be 0.01 nM. In experiment [3], the “IC50 of HBV neutralization, genotype B” value was 0.08 nM. The “IC50 of HBV neutralization, genotype C” value in experiment [4] came out at 0.03 nM.

B4: #8 (antibody, V domains shown)
VH: B3 VH
VL: QSVVTQPPSVSAAPGQKVTISCSGSSSNIGNYYVSWYQHLPGTAPKLLIYDNAKRPSGIPDRFSGSKSGTSATLGITGLRAEDEADYYCQSYDNSLSGLVFGGGTKLTVL
B4: the “HBV (genotype D) neutralization, against A14” value in experiment [2] worked out at 5 fold.

B5: 2H5 (antibody, V domains shown)
VH: B3 VH with A23G, N32K, Y60H, T103Q, R104M, W105G, G106A, M107L, L115T
VL: B3 VL
For the molecule B5, in experiment [2], the “IC50 in HBV infection assay, against KR127” value is 11 fold.

The record behind these values is patent publication US20180148496A1 (HUAHUI HEALTH, published 2018).
